US9127040B2, “Regulation of sodium channels by PLUNC proteins” (The University of North Carolina at Chapel Hill, priority 2011, dated 2015)

Molecular target: T1, αβγENaC (Rattus norvegicus, UniProt P37089+P37090+P37091, R138K/R205K/R231K)
T1 construct: expressed in transfected cells; host or cells: Xenopus laevis oocytes (cRNA injection)
T1 sequence (P37089 1-698 R205K/R231K): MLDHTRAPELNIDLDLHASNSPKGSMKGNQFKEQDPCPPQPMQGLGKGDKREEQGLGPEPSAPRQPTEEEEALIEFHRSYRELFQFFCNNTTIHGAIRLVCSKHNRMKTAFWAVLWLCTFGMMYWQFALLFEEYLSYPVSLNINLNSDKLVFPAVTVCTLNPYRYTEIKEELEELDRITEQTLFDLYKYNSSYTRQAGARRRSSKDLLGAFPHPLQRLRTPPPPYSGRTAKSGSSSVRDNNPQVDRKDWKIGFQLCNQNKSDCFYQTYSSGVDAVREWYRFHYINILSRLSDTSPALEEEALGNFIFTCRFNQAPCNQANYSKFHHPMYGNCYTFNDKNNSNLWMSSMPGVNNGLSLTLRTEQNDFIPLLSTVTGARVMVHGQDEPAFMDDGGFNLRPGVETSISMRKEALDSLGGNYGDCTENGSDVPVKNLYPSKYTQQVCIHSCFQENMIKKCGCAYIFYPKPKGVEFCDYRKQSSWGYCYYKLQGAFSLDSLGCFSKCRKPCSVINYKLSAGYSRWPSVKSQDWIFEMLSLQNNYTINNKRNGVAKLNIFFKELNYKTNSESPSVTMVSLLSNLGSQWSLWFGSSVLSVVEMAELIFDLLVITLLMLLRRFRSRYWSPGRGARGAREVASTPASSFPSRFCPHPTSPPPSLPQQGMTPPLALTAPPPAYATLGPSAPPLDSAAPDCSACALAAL
T1 sequence (P37090 1-638): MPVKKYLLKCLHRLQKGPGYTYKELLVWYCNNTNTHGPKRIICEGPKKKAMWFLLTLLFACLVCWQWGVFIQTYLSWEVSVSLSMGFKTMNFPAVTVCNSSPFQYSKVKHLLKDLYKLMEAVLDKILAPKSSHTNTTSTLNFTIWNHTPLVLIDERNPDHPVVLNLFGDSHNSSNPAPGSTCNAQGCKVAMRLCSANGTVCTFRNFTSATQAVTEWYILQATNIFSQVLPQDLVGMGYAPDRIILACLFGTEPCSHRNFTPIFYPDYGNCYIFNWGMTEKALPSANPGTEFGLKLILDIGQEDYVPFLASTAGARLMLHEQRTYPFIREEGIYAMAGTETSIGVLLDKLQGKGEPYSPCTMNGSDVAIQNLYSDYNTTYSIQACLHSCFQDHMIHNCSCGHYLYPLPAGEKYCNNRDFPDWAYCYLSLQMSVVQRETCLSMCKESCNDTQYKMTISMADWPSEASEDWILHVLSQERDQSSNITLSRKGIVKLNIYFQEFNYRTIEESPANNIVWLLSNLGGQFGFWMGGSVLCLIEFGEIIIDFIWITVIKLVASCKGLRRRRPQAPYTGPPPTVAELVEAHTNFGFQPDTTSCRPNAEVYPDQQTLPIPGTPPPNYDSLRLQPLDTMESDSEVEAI
T1 sequence (P37091 1-650 R138K): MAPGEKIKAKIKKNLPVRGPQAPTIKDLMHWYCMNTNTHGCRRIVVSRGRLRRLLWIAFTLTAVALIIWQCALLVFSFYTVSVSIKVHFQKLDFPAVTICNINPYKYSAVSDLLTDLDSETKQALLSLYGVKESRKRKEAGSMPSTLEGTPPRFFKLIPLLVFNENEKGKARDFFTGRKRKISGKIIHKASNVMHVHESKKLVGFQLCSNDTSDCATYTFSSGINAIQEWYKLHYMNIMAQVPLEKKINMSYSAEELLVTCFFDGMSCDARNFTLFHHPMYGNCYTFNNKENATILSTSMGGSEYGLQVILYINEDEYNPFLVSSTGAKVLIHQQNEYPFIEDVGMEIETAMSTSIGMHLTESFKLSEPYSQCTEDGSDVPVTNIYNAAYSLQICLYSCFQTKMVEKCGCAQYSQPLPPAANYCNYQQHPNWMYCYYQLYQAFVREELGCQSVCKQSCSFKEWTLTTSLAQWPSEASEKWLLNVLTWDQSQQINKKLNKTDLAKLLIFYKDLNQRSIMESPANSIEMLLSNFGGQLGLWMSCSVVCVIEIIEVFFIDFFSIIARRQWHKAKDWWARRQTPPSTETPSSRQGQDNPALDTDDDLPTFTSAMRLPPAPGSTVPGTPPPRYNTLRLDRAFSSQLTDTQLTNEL
Experiment: Amiloride-sensitive whole cell current, two electrode voltage clamp, Xenopus laevis oocytes expressing αβγENaC
Type: cell-based
Conditions: SPLUNC1 co-expressed

B1: SPLUNC1: human SPLUNC1 (SEQ ID NO:1), 256 amino acid secreted PLUNC family protein; rSPLUNC1 is the purified V5/6His-tagged recombinant form (protein, listed as Homo sapiens)
chain: MFQTGGLIVFYGLLAQTMAQFGGLPVPLDQTLPLNVNPALPLSPTGLAGSLTNALSNGLLSGGLLGILENLPLLDILKPGGGTSGGLLGGLLGKVTSVIPGLNNIIDIKVTDPQLLELGLVQSPDGHRLYVTIPLGIKLQVNTPLVGASLLRLAVKLDITAEILAVRDKQERIHLVLGDCTHSPGSLQISLLDGLGPLPIQGLLDSLTGILNKVLPELVQGNVCPLVNEVLRGLDITLVHDIVNMLIHGLQFVIKV
modifications: V5/6His tag in recombinant form
notes: rSPLUNC1 is the purified V5/6His-tagged recombinant form
current of furin-insensitive αR205,231K,β,γR138K ENaC mutant: also inhibited
